Laboratory results published in patent publication US9567369B2, “Method of treating metastatic cancer” (A.T. Still University, priority 2012, dated 2017).
Ends that are not written are not given here.

Legend:
[1] = tested on: metastatic human melanoma 1205 Lu cells; experiment: MTT growth assay of human 1205 Lu melanoma cells with peptide; type: cell-based; conditions: peptide 10 uM, 1 time addition or day 1-3 addition; identical conditions as for B16
Method: B16F10 melanoma cells were obtained from the ATCC. Human 1205 Lu metastatic melanoma cell line was received from Robert Baer, PhD, a collaborator with our laboratory here at ATSU. Growth was in RPMI 1640 media supplemented with FBS (10%) and penicillin, streptomycin, amphotericin antibiotics (1%) (Sigma). Cells were maintained in a humidified incubator at 37° C. with 5% CO2.
The growth of B16F10 melanoma cells by the MTT method was performed with the addition of 10 uM peptide to the melanoma cells in standard 96-well culture plates. Cells were cultured in media for 4 days after seeding at about 1000 cells per well. After growth the culture media was replaced with media containing 0.5 mg/ml MTT solution and incubated for 4 hours at 37° C. The MTT solution was then removed and the residual dye was solubilized in 100 ul isopropanol for 15 minutes before reading the O.D. at 570 nm.

protein kinase C (PKC) = experiment: Inhibition of protein kinase C activity
papain = target: T1, papain (Carica papaya, UniProt P00784); conditions: at 160 uM; cited from earlier work
T1 sequence (P00784 134-345): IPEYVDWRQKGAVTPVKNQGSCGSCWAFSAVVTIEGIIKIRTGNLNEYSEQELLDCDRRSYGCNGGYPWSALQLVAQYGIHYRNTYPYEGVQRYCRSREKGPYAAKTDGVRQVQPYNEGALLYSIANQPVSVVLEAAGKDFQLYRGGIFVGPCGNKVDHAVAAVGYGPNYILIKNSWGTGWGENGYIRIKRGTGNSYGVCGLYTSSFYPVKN

[2] = tested on: MARCKS phosphorylation in B16F10 melanoma cells; experiment: MARCKS phosphorylation by western blot with phospho-antibody probing; type: cell-based; conditions: murine Cystatin C overexpressing clone cc6 B16F10 melanoma cells vs control
From the text: (§1) The Cystatin C cDNA was amplified from B16F10 melanoma cells by PCR amplification of reverse transcribed total RNA isolated from B16 F10 melanoma cells in culture. The primers used for the amplification were derived from 5′ and 3′ sequences for murine Cystatin C from Solem et al. (18). The PCR product corresponding to the expected size was agarose gel purified and ligated into pcDNA3 expression plasmid for further analysis. The plasmid was sent to for sequence analysis at the University of Chicago and the sequence analysis produced a cDNA sequence which exactly matched murine Cystatin C cDNA sequence (19). Transfection of the cystatin plasmid or pcDNA3 plasmid was carried out with Lipofectamine™ reagent (Invitrogen) by the manufacturer's instructions. Isolated cell colonies, which had grown following Geneticin® (1 mg/ml) selection were trypsized in glass cloning rings and transferred to multi-well tissue culture dishes for expansion in culture.
For analysis of B16 melanoma proteins, melanoma cell cultures were lysed with lysis buffer and extracts were centrifuged at 10K rpm for 5 minutes. Protein was measured by Lowry assay and 40 ug of protein was loaded per lane on 10% SDS-PAGE gels for analysis. After electrophoresis, the proteins were transferred to PVDF membranes which were first blocked with 2% BSA in TBST buffer. […]

B16 melanoma cells = experiment: Boyden chamber-type migration assay, Cystatin C overexpressing clone cc6 versus control plasmid clone pc2; type: cell-based, murine; conditions: B16 melanoma cells overexpressing Cystatin C (clone cc6) compared to control plasmid transfected (pc2); bFGF chemotactic factor
From the text: as §1
Cells (2×104) are placed into the top well of the Boyden chamber in cell culture media while media plus bFGF chemotactic factor (25 ng/ml) is placed into the lower well of the chamber. Quantitation is through direct microscopic counting of 10-20 fields of crystal violet stained cells per filter.

## RQIKIWFPNRRMKWKKAYRKQLVAGVNYFFDVH [penetratin linked to active peptide]
[1]
  growth of human 1205 Lu melanoma cell line: significantly inhibits

## YRKQLVAGVNYFFDVH (listed as Mus musculus) [therapeutic peptide, Therapeutic peptide derived from mouse Cystatin C with the first A substituted by Y]
Protein kinase C (PKC)
  inhibition of protein kinase C (PKC) activity: inhibits
papain
  inhibition of papain: 20%

B1: Cystatin C: natural cysteine protease inhibitor; murine Cystatin C cDNA overexpressed from pcDNA3 plasmid in B16F10 melanoma cells (clone cc6) (protein, UniProt P21460 21-140, looked up)
Cystatin-C: ATPKQGPRMLGAPEEADANEEGVRRALDFAVSEYNKGSNDAYHSRAIQVVRARKQLVAGVNYFLDVEMGRTTCTKSQTNLTDCPFHDQPHLMRKALCSFQIYSVPWKGTHSLTKFSCKNA
[2]
  average level of MARCKS phosphorylation, fold less: 3-5 fold
B16 melanoma cells
  inhibition of migration: ~80%
